In publication PMC3070541:

Molecular target: 2A3-D NKT TCR βL95A, on 5KC hybridoma (mouse)
Experiment: flow cytometry on cells

reduction of tetramer binding against the wild type: 10%
Substance: mouse CD1d tetramer loaded with α-galactosylceramide (αGC) (from UniProt P11609 22-336; P01887 21-119) (complex)
